Assay results reported in US12324447B2, “Animal feed compositions and uses thereof” (priority 2015, dated 2025).
“Also recorded” adds a separate entry of the source. Like-named read-outs stand apart in the source and are kept apart here.

B1: SEQ ID NO: 303: mature GH24 lysozyme from Geomyces auratus (protein, listed as Geomyces auratus)
chain: AFPITGSTVNCRTGPGTSHGVKTSYKKGHEVTVSCQTGGTSVNGNSIWDKTSDGCYVADYYVKTGSSGYVKPKCGSSSGGGGGSSCGAPKSNAATVNLIAEFEGFVSHVYTDATGHPTVGYGHLCSNSKCSGIGYSIPISKANAKKLLAKDMAIAEKCITAMINKSRTLNLNQYGALVSWAFNEGCGAAKSSTLIKRINNGEKPSTVIPQELPKWVYGGSSVLPGLVRRRNAEIALAKKATSSKALPAHC
modifications: mat_peptide (1)..(250)
notes: mature GH24 lysozyme from Geomyces auratus
B2: SEQ ID NO: 306: mature GH24 lysozyme from Ilyonectria rufa (protein, listed as Ilyonectria rufa)
chain: YKITGDNVNCRSGPGTSYSVKRSFKKGTDVTLSCQTTGENVLGTSIWDKTSYGCYVSDYYVKTGSSGFVVKKCGTCGAPKSNAATVNLISDFEGFRANIYKDAAGYPTVGYGHLCSNSRCTDVPYSIPLSKANGKNLLATDMTKFEKCITAMVSSSVTLNKNQYGALVSWAFNMGCGATKTSTLIKRLNQGQNVNTVLSTELPKWVYAGGKKLNGLVRRRNAEIALAKKKTTEKALPNKC
modifications: mat_peptide (1)..(240)
notes: mature GH24 lysozyme from Ilyonectria rufa
B3: SEQ ID NO: 280: mature GH24 lysozyme from Acremonium alcalophilum, mature sequence of SEQ ID NO: 6 of WO 2013/076259; no LED (protein, listed as Acremonium alcalophilum)
chain: QCVGPAINSAALNLIKEFEGWRPNIYRDPVGLPTVGYGHLCRDSSCSDVPYPIPLSVANGERLLRSDLATASSVVLNANQYGALVSWAFNVGCGATSTSTLIRRLNAGESPNTVAAQELPRWNKAGGQVLPGLVRRRAAEVELHRTSTSVRALPACS
modifications: mat_peptide (1)..(157)
notes: no LED
B4: SEQ ID NO: 267: mature GH24 lysozyme from Trichoderma harzianum, comprising LED (protein, listed as Trichoderma harzianum)
chain: YPITGDVVNCRTGPGTSYAIKKSYKKNQDISISCQTAGTSVNGNSIWDKTADGCYVADYYVKTGSSGYVTKKCTASSGGGSSSSYCKTINSAGVDLIAKWEGFVASPKPDPIGLPTVGYGHLCQQKNCREVKYKFPLTKTTAKELLLDDLPKYTKCLADYLNDKPKLNANQWAALTSWVFNVGCGNAKTSTLVKRLNNGEAANTVAAEELPKWRMAGGKVLPGLEARRKDEVKLFKTASSKQAYPKCQ
modifications: mat_peptide (1)..(248)
notes: mature GH24 lysozyme from Trichoderma harzianum, comprising LED
B5: SEQ ID NO: 264: mature GH24 lysozyme from Chaetomium thermophilum, comprising LED (protein, listed as Chaetomium thermophilum)
chain: PASAYAITGDNVNCRSGPGTSYAVKKVYKKGTDVKISCQTTGTNINGNNLWDKTSDGCYVSDYYVKTGSNGYVTSKCSSSGGSTCAAPKSNQATVDLIAEFEGFRANIYTDAAGYATVGYGHKCQKAKCAEVKYKIPLSKADGKKLLADDMRSFEVCITNMLNSKAKLNYNQFGALVSWSFNVGCGAAKSSTLIKRLNNGENVNKVLSEELPKWNKAGGKVLQGLVRRRAAEVALAKKSGSSQALPVKC
modifications: mat_peptide (1)..(249)
notes: mature GH24 lysozyme from Chaetomium thermophilum, comprising LED
B6: SEQ ID NO: 273: mature LED (lysozyme enhancing domain) from Trichophaea saccata (protein)
chain: YPVKTDLHCRSSPSTSASIVRTYSSGTEVQIQCQTTGTSVQGSNVWDKTQHGCYVADYYVKTGHSGIFTTKCG
modifications: mat_peptide (1)..(73)
notes: mature LED (lysozyme enhancing domain) from Trichophaea saccata

Key:
[1] = system: Micrococcus lysodeikticus ATTC No. 4698; assay: Lysozyme activity turbidity assay (optical density drop at 540 nm); details: for Lysozyme activity against Micrococcus lysodeikticus (in words): OD drop assay
[2] = system: Exiguobacterium undea (DSM14481); assay: as above; assay type: biochemical, Exiguobacterium undae; details: for Lysozyme activity against Exiguobacterium undea (in words): OD drop assay
[3] = system: Clostridium perfringens DSM756; assay type: cell-based; details: for Diameter of clearing zone (mm): lysozymes 100 μg/ml, Bacitracin zinc salt 50 μg/ml; for Antimicrobial activity against Clostridium perfringens (in words): RDA
[4] = Binding of LED to Avicel suspension (SDS gel of supernatant); details: for Binding of LED protein to crystalline cellulose (in words): 25 mM Na-Acetate, pH 4.5, 25 mM NaCl
[5] = system: Micrococcus lysodeiktikus ATCC No. 4698 cells; assay: Binding of LED to M. lysodeiktikus suspension (SDS gel of supernatant); details: for Binding of LED protein to M. lysodiektikus cells (in words): 25 mM Na-Acetate, pH 4.5, 25 mM NaCl
[6] = tested conditions (1/10 MHB pH 7 and 1/2 MHB pH 6)

Molecule | Lysozyme activity against Micrococcus lysodeikticus (in words) [1] | Lysozyme Activity against Micrococcus lysodeikticus as measured by Optical Density Drop ([1]; assay pH 6 (Table 14)) | Lysozyme activity against Exiguobacterium undea (in words) [2] | Lysozyme Activity against Exiguobacterium undae as measured by Optical Density Drop ([2]; assay pH 6 (Table 14)) | Diameter of clearing zone (mm) ([3]; Experiment 1, 1/2 MHB pH 6) | Diameter of clearing zone (mm) ([3]; Experiment 1, 1/10 MHB pH 7) | Diameter of clearing zone (mm) ([3]; Experiment 2, 1/10 MHB pH 7) | Antimicrobial activity against Clostridium perfringens (in words) [3, 6] | Antimicrobial activity against Clostridium perfringens (in words) ([3]; 50% MHB, pH 6) | other results
B1 | good activity | +++ | good activity | ++++ |  |  |  |  |  | 
B2 | good activity | ++ | good activity | ++++ |  |  |  |  |  | 
B3 | small amount of activity |  |  |  | 0 | 0 | 0 | do not have any activity; also recorded: did not inhibit growth |  | Lysozyme Activity against Micrococcus lysodeikticus as measured by Optical Density Drop ([1]; assay pH 4.5): +; Lysozyme Activity against Exiguobacterium undae as measured by Optical Density Drop ([2]; assay pH 3-7): −
B4 | good activity | +++ | good activity | ++++ | 12 | 10 | 8 | showed antimicrobial activity | significant activity | 
B5 | good activity |  | good activity |  | 10 | 9 | 7 | showed antimicrobial activity | significant activity | Lysozyme Activity against Micrococcus lysodeikticus as measured by Optical Density Drop ([1]; assay pH 5): ++++; Lysozyme Activity against Exiguobacterium undae as measured by Optical Density Drop ([2]; assay pH 6): ++++
B6 |  |  |  |  |  |  |  |  |  | Binding of LED protein to crystalline cellulose (in words) [4]: did not bind; Binding of LED protein to crystalline cellulose (in words) ([4]; listed as LED protein): could not bind; Result: LED band intensity on an SDS gel (supernatant after incubation) ([4]; Suspension: Avicel, 30 minutes room temperature): +++; Binding of LED protein to M. lysodiektikus cells (in words) [5]: binds; Binding of LED protein to M. lysodiektikus cells (in words) ([5]; listed as LED protein): able to bind; Result: LED band intensity on an SDS gel (supernatant after incubation) ([5]; Suspension: M. lysodeiktikus, 30 minutes room temperature): +; Result: LED band intensity on an SDS gel ([5]; Suspension: None (untreated LED sample, reference for both suspensions)): +++
